Data from publication PMC6193622, “Identification of UHRF2 as a novel DNA interstrand crosslink sensor protein” (PLoS Genetics, 2018).

B1: Flag-UHRF1 wild type purified from Sf9 cells (natural protein, human, UniProt Q96T88-2 1-806, looked up)
chain: MGVFAVPPLSSDTMWIQVRTMDGRQTHTVDSLSRLTKVEELRRKIQELFHVEPGLQRLFYRGKQMEDGHTLFDYEVRLNDTIQLLVRQSLVLPHSTKERDSELSDTDSGCCLGQSESDKSSTHGEAAAETDSRPADEDMWDETELGLYKVNEYVDARDTNMGAWFEAQVVRVTRKAPSRDEPCSSTSRPALEEDVIYHVKYDDYPENGVVQMNSRDVRARARTIIKWQDLEVGQVVMLNYNPDNPKERGFWYDAEISRKRETRTARELYANVVLGDDSLNDCRIIFVDEVFKIERPGEGSPMVDNPMRRKSGPSCKHCKDDVNRLCRVCACHLCGGRQDPDKQLMCDECDMAFHIYCLDPPLSSVPSEDEWYCPECRNDASEVVLAGERLRESKKKAKMASATSSSQRDWGKGMACVGRTKECTIVPSNHYGPIPGIPVGTMWRFRVQVSESGVHRPHVAGIHGRSNDGAYSLVLAGGYEDDVDHGNFFTYTGSGGRDLSGNKRTAEQSCDQKLTNTNRALALNCFAPINDQEGAEAKDWRSGKPVRVVRNVKGGKNSKYAPAEGNRYDGIYKVVKYWPEKGKSGFLVWRYLLRRDDDEPGPWTKEGKDRIKKLGLTMQYPEGYLEALANREREKENSKREEEEQQEGGFASPRTGKGKWKRKSAGGGPSRAGSPRRTSKKTKVEPYSLTAQQSSLIREDKSNAKLWNEVLASLKDRPASGSPFQLFLSKVEETFQCICCQELVFRPITTVCQHNVCKDCLDRSFRAQVFSCPACRYDLGRSYAMQVNQPLQTVLNQLFPGYGNGR
notes: UHRF1, human, wild type; the deletion limits printed for its mutants run to residue 806, so the 806-residue isoform is meant; also called wild type UHRF1; Flag-tagged wild type UHRF1; source: Sf9, purified

Tests used:
[1] = biological target: T1, Flag-HA-FANCD2 purified from Sf9 cells (human, UniProt Q9BXW9 1-1451); assay: co-IP; in vitro binding assay: 1μg of each protein with 10μg BSA in 20mM Tris-HCl pH 8.0, 150mM KCl, 10% glycerol, 2mM β-ME, 10μl, 37°C 1h; HA-FANCD2 immunoprecipitated on protein A sepharose with anti-HA IgG at 4°C, washed with 0.1% Tween-20, eluted with HA peptide; immunoblotting; details: both partners purified
T1 construct: FANCD2, human, full-length form; also called Flag-HA-tagged FANCD2; source: Sf9, purified (M2 anti-Flag agarose, Flag peptide elution); not shown: Flag, N-terminal, kept; HA, N-terminal, kept

[2] = biological target: B1; assay: co-IP; in vitro binding assay of purified recombinant proteins from Sf9 cells; His-UHRF2 was immunoprecipitated, immunoblotting; details: both partners purified

T1 sequence (Q9BXW9 whole entry): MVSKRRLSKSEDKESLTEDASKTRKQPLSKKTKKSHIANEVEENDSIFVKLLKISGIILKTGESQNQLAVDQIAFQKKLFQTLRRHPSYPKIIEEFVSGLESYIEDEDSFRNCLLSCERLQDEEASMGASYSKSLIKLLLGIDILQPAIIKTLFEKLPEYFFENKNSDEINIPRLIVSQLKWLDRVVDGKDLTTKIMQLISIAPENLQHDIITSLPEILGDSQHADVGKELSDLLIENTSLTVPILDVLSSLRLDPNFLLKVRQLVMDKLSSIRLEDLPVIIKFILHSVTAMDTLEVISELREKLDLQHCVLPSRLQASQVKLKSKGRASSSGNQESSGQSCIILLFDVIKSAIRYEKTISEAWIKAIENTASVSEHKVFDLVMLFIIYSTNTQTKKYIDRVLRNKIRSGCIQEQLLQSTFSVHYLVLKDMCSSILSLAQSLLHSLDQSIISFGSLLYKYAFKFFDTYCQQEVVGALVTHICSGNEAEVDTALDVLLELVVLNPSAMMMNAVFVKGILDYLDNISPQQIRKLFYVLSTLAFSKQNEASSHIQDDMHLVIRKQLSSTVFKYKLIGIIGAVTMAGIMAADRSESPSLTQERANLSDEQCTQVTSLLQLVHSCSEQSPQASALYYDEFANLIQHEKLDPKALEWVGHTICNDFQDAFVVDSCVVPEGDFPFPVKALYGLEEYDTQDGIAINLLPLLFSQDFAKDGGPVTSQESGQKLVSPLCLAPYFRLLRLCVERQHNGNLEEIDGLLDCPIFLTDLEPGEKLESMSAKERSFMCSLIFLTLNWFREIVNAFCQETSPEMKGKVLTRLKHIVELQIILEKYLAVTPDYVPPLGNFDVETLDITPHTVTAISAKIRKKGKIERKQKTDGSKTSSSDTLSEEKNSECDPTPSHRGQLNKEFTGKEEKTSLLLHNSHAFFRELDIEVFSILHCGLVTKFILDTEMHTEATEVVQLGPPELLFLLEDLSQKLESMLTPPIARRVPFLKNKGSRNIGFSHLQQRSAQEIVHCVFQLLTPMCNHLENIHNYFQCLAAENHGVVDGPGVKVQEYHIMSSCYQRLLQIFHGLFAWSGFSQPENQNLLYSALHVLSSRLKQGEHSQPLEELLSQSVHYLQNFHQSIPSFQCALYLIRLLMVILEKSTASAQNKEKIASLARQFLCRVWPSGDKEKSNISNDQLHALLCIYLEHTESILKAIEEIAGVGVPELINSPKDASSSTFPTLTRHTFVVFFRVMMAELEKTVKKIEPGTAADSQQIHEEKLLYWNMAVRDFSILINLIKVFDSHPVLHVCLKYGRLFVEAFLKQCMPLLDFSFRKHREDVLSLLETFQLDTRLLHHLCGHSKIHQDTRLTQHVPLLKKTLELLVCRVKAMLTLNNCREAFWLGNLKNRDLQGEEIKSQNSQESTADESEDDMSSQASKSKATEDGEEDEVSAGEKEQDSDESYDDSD

Binder	binding result [1]	binding result [2]
Flag-UHRF1 with the PHD domain deleted (natural protein, human, UniProt Q96T88-2 1-806, looked up, UHRF1, human, amino acids 323-379 (PHD domain) deleted; also called UHRF1 PHD deletion mutant; source: Sf9, purified) MGVFAVPPLSSDTMWIQVRTMDGRQTHTVDSLSRLTKVEELRRKIQELFHVEPGLQRLFYRGKQMEDGHTLFDYEVRLNDTIQLLVRQSLVLPHSTKERDSELSDTDSGCCLGQSESDKSSTHGEAAAETDSRPADEDMWDETELGLYKVNEYVDARDTNMGAWFEAQVVRVTRKAPSRDEPCSSTSRPALEEDVIYHVKYDDYPENGVVQMNSRDVRARARTIIKWQDLEVGQVVMLNYNPDNPKERGFWYDAEISRKRETRTARELYANVVLGDDSLNDCRIIFVDEVFKIERPGEGSPMVDNPMRRKSGPSCKHCKDDVASEVVLAGERLRESKKKAKMASATSSSQRDWGKGMACVGRTKECTIVPSNHYGPIPGIPVGTMWRFRVQVSESGVHRPHVAGIHGRSNDGAYSLVLAGGYEDDVDHGNFFTYTGSGGRDLSGNKRTAEQSCDQKLTNTNRALALNCFAPINDQEGAEAKDWRSGKPVRVVRNVKGGKNSKYAPAEGNRYDGIYKVVKYWPEKGKSGFLVWRYLLRRDDDEPGPWTKEGKDRIKKLGLTMQYPEGYLEALANREREKENSKREEEEQQEGGFASPRTGKGKWKRKSAGGGPSRAGSPRRTSKKTKVEPYSLTAQQSSLIREDKSNAKLWNEVLASLKDRPASGSPFQLFLSKVEETFQCICCQELVFRPITTVCQHNVCKDCLDRSFRAQVFSCPACRYDLGRSYAMQVNQPLQTVLNQLFPGYGNGR	binds	–
Flag-UHRF1 with the UBL domain deleted (natural protein, human, UniProt Q96T88-2 1-806, looked up, UHRF1, human, amino acids 14-91 (UBL domain) deleted; also called UHRF1 UBL deletion mutant; source: Sf9, purified) MGVFAVPPLSSDTLPHSTKERDSELSDTDSGCCLGQSESDKSSTHGEAAAETDSRPADEDMWDETELGLYKVNEYVDARDTNMGAWFEAQVVRVTRKAPSRDEPCSSTSRPALEEDVIYHVKYDDYPENGVVQMNSRDVRARARTIIKWQDLEVGQVVMLNYNPDNPKERGFWYDAEISRKRETRTARELYANVVLGDDSLNDCRIIFVDEVFKIERPGEGSPMVDNPMRRKSGPSCKHCKDDVNRLCRVCACHLCGGRQDPDKQLMCDECDMAFHIYCLDPPLSSVPSEDEWYCPECRNDASEVVLAGERLRESKKKAKMASATSSSQRDWGKGMACVGRTKECTIVPSNHYGPIPGIPVGTMWRFRVQVSESGVHRPHVAGIHGRSNDGAYSLVLAGGYEDDVDHGNFFTYTGSGGRDLSGNKRTAEQSCDQKLTNTNRALALNCFAPINDQEGAEAKDWRSGKPVRVVRNVKGGKNSKYAPAEGNRYDGIYKVVKYWPEKGKSGFLVWRYLLRRDDDEPGPWTKEGKDRIKKLGLTMQYPEGYLEALANREREKENSKREEEEQQEGGFASPRTGKGKWKRKSAGGGPSRAGSPRRTSKKTKVEPYSLTAQQSSLIREDKSNAKLWNEVLASLKDRPASGSPFQLFLSKVEETFQCICCQELVFRPITTVCQHNVCKDCLDRSFRAQVFSCPACRYDLGRSYAMQVNQPLQTVLNQLFPGYGNGR	binds	–
Flag-UHRF1 with the RING domain deleted (natural protein, human, UniProt Q96T88-2 1-806, looked up, UHRF1, human, amino acids 727-806 (RING domain) deleted; also called UHRF1 RING deletion mutant; source: Sf9, purified) MGVFAVPPLSSDTMWIQVRTMDGRQTHTVDSLSRLTKVEELRRKIQELFHVEPGLQRLFYRGKQMEDGHTLFDYEVRLNDTIQLLVRQSLVLPHSTKERDSELSDTDSGCCLGQSESDKSSTHGEAAAETDSRPADEDMWDETELGLYKVNEYVDARDTNMGAWFEAQVVRVTRKAPSRDEPCSSTSRPALEEDVIYHVKYDDYPENGVVQMNSRDVRARARTIIKWQDLEVGQVVMLNYNPDNPKERGFWYDAEISRKRETRTARELYANVVLGDDSLNDCRIIFVDEVFKIERPGEGSPMVDNPMRRKSGPSCKHCKDDVNRLCRVCACHLCGGRQDPDKQLMCDECDMAFHIYCLDPPLSSVPSEDEWYCPECRNDASEVVLAGERLRESKKKAKMASATSSSQRDWGKGMACVGRTKECTIVPSNHYGPIPGIPVGTMWRFRVQVSESGVHRPHVAGIHGRSNDGAYSLVLAGGYEDDVDHGNFFTYTGSGGRDLSGNKRTAEQSCDQKLTNTNRALALNCFAPINDQEGAEAKDWRSGKPVRVVRNVKGGKNSKYAPAEGNRYDGIYKVVKYWPEKGKSGFLVWRYLLRRDDDEPGPWTKEGKDRIKKLGLTMQYPEGYLEALANREREKENSKREEEEQQEGGFASPRTGKGKWKRKSAGGGPSRAGSPRRTSKKTKVEPYSLTAQQSSLIREDKSNAKLWNEVLASLKDRPASGSPFQL	binds	–
B1	binds	–
Flag-UHRF1 with the TTD domain deleted (natural protein, human, UniProt Q96T88-2 1-806, looked up, UHRF1, human, amino acids 146-296 (TTD domain) deleted; also called UHRF1 TTD deletion mutant; source: Sf9, purified) MGVFAVPPLSSDTMWIQVRTMDGRQTHTVDSLSRLTKVEELRRKIQELFHVEPGLQRLFYRGKQMEDGHTLFDYEVRLNDTIQLLVRQSLVLPHSTKERDSELSDTDSGCCLGQSESDKSSTHGEAAAETDSRPADEDMWDETELGEGSPMVDNPMRRKSGPSCKHCKDDVNRLCRVCACHLCGGRQDPDKQLMCDECDMAFHIYCLDPPLSSVPSEDEWYCPECRNDASEVVLAGERLRESKKKAKMASATSSSQRDWGKGMACVGRTKECTIVPSNHYGPIPGIPVGTMWRFRVQVSESGVHRPHVAGIHGRSNDGAYSLVLAGGYEDDVDHGNFFTYTGSGGRDLSGNKRTAEQSCDQKLTNTNRALALNCFAPINDQEGAEAKDWRSGKPVRVVRNVKGGKNSKYAPAEGNRYDGIYKVVKYWPEKGKSGFLVWRYLLRRDDDEPGPWTKEGKDRIKKLGLTMQYPEGYLEALANREREKENSKREEEEQQEGGFASPRTGKGKWKRKSAGGGPSRAGSPRRTSKKTKVEPYSLTAQQSSLIREDKSNAKLWNEVLASLKDRPASGSPFQLFLSKVEETFQCICCQELVFRPITTVCQHNVCKDCLDRSFRAQVFSCPACRYDLGRSYAMQVNQPLQTVLNQLFPGYGNGR	binds	–
6xHis-UHRF2 purified from Sf9 cells (natural protein, human, UniProt Q96PU4 1-802, looked up, UHRF2, human; also called 6xHis-tagged UHRF2; source: Sf9, purified) MWIQVRTIDGSKTCTIEDVSRKATIEELRERVWALFDVRPECQRLFYRGKQLENGYTLFDYDVGLNDIIQLLVRPDPDHLPGTSTQIEAKPCSNSPPKVKKAPRVGPSNQPSTSARARLIDPGFGIYKVNELVDARDVGLGAWFEAHIHSVTRASDGQSRGKTPLKNGSSCKRTNGNIKHKSKENTNKLDSVPSTSNSDCVAADEDVIYHIQYDEYPESGTLEMNVKDLRPRARTILKWNELNVGDVVMVNYNVESPGQRGFWFDAEITTLKTISRTKKELRVKIFLGGSEGTLNDCKIISVDEIFKIERPGAHPLSFADGKFLRRNDPECDLCGGDPEKKCHSCSCRVCGGKHEPNMQLLCDECNVAYHIYCLNPPLDKVPEEEYWYCPSCKTDSSEVVKAGERLKMSKKKAKMPSASTESRRDWGRGMACVGRTRECTIVPSNHYGPIPGIPVGSTWRFRVQVSEAGVHRPHVGGIHGRSNDGAYSLVLAGGFADEVDRGDEFTYTGSGGKNLAGNKRIGAPSADQTLTNMNRALALNCDAPLDDKIGAESRNWRAGKPVRVIRSFKGRKISKYAPEEGNRYDGIYKVVKYWPEISSSHGFLVWRYLLRRDDVEPAPWTSEGIERSRRLCLRLQYPAGYPSDKEGKKPKGQSKKQPSGTTKRPISDDDCPSASKVYKASDSAEAIEAFQLTPQQQHLIREDCQNQKLWDEVLSHLVEGPNFLKKLEQSFMCVCCQELVYQPVTTECFHNVCKDCLQRSFKAQVFSCPACRHDLGQNYIMIPNEILQTLLDLFFPGYSKGR	binds	binds
